In patent US9663581:

Target: FcγRIIIa on NK cells (human) (UniProt P08637)
Assay: cell-based or functional assay

UniProt P08637, sequence (P08637 17-254): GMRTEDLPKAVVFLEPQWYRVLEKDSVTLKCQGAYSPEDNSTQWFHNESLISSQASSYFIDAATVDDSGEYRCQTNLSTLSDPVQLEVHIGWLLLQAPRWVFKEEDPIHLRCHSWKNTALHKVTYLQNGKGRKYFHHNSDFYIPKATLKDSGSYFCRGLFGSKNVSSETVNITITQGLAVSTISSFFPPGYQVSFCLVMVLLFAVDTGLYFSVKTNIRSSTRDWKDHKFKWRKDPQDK

ADCC EC50 (LDH release, Raji target cells, human PBMC effector cells): 0.046 mg/L
Substance: wild type rituximab (antibody)
